Data on four molecules can be found in patent publication US20140370035A1 (BIOVERATIV THERAPEUTICS, published 2014).

In data set [1] the target is single-chain canine FcRn (canine). The data set is described as follows: SPR (Biacore T100), steady state, pH 6.0; single-chain FcRn amine-coupled to CM5 chip, analyte at 0.0625-2000 nM. In general terms: In SPR one partner is held on a chip, and binding of the other changes the refractive index at the surface.
The target of data set [2] is single-chain human FcRn (human) (UniProt P55899). The description is as above.
The target of data set [3] is single-chain murine FcRn (mouse) (UniProt Q61559). Described as above.
Data set [4] relates to T1, rBDD FVIII (recombinant B-domain deleted FVIII).
T1 sequence: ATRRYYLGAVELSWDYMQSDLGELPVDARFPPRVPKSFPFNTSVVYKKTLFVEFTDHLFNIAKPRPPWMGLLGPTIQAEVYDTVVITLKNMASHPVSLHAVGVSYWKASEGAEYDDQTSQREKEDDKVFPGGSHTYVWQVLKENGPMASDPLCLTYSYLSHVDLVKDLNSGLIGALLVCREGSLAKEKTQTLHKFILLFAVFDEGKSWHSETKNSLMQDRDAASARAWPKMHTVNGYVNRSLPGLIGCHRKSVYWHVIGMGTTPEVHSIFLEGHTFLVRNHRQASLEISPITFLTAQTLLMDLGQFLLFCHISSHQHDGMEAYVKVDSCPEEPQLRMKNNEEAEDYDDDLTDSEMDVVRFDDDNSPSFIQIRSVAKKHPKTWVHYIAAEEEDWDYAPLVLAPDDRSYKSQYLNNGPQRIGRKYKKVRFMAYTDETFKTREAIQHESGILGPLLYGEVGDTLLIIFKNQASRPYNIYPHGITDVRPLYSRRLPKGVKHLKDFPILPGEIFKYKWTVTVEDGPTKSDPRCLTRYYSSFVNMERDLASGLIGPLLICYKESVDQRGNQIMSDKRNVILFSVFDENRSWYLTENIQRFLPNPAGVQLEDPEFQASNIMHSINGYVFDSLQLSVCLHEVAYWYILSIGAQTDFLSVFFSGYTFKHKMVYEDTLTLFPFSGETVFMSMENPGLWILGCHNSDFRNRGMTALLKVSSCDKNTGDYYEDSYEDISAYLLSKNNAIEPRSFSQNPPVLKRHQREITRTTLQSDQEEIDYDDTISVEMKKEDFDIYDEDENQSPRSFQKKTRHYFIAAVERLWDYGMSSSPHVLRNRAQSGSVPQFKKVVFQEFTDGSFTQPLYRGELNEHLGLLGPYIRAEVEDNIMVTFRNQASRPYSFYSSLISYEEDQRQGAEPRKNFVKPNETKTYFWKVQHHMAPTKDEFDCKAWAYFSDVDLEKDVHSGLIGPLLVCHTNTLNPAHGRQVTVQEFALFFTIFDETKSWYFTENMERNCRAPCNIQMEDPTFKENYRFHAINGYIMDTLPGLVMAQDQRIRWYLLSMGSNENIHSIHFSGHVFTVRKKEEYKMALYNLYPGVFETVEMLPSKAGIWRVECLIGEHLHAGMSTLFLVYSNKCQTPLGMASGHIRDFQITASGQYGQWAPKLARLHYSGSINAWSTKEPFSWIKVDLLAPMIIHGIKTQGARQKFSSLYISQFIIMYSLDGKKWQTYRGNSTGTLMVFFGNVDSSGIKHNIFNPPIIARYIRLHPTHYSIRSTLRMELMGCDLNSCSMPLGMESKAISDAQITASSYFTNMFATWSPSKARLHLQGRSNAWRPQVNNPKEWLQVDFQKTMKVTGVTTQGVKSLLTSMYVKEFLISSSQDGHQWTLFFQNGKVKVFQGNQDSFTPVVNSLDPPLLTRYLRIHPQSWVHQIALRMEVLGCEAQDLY

The target in data set [5] is T2, human von Willebrand factor (human, UniProt P04275 764-2813).
T2 construct: also called hvWf; vWF
The experiment in a line: SPR (BIAcore); FVIII protein as analyte, hvWf as ligand; N=5. How it is done:
(§1) Kinetic rate parameters of Kₐ (on-rate) and Kd (off-rate), and the affinity KD (Kd/Kₐ), were determined for each FVIII interaction under identical conditions.

Data set [6] addresses T2, human von Willebrand factor. The experiment in a line: SPR (BIAcore); FVIII protein as analyte, hvWf as ligand; N=5; KD = off-rate/on-rate. How it is done:
as §1

Some results are limits rather than exact numbers.

Sequence of single-chain canine FcRn (canine) (chain, as listed by the source, form in doubt): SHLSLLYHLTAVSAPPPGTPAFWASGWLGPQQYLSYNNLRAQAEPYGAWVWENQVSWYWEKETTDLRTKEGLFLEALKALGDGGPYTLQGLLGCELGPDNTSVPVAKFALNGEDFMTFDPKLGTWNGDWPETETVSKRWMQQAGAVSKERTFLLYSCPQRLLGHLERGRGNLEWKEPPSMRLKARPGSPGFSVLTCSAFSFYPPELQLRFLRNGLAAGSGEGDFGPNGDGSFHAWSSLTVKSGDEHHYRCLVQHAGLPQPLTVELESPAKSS
Sequence of single-chain human FcRn (human) (P55899 24-297 limits assumed, form in doubt, chain 1 of 2): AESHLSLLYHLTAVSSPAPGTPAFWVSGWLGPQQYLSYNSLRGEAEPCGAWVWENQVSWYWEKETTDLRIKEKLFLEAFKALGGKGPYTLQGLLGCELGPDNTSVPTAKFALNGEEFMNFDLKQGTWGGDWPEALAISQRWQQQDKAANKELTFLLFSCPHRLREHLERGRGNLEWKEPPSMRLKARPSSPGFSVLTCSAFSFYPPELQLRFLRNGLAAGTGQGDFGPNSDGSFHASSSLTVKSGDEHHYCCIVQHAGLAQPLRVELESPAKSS
Sequence of single-chain human FcRn (human) (chain, as listed by the source limits assumed, form in doubt, chain 2 of 2): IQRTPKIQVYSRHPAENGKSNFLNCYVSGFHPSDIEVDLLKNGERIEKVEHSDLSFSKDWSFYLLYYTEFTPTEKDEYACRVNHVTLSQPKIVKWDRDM
Sequence of single-chain murine FcRn (mouse) (Q61559 22-297 limits assumed, form in doubt, chain 1 of 2): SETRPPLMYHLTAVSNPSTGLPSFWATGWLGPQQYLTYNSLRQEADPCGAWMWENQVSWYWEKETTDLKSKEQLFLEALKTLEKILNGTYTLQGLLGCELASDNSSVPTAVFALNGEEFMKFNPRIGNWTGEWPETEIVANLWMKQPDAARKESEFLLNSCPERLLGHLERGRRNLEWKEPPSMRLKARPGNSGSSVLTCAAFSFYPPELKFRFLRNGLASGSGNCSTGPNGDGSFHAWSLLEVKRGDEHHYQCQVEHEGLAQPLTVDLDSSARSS
Sequence of single-chain murine FcRn (mouse) (chain, as listed by the source limits assumed, form in doubt, chain 2 of 2): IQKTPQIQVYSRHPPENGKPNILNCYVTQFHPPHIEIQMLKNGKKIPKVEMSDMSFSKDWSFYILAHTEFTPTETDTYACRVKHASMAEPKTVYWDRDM

In the case of Human IgG1 (antibody), the half-maximal effective concentration (EC50) is 196 nM in data set [1], 558 nM in data set [2] and less than 22.4 nM in data set [3].
Consider activated Factor IX, for which, in data set [4], the Km (nM) (called Kd in the text): FXa generation rate against FIXa concentration, thrombin-activated FVIII protein on 25% PS-75% PC vesicles worked out at 2.5 nM and the Vmax (nM/min): FXa generation rate against FIXa concentration turned out to be 4 nM/min.
For the molecule activated protein C, in data set [4], the “normalized FXa generation rate following cleavage by APC (thrombin 30' = 100); shown without a number” value is given as “'BDD FVIII' is one of the two lighter bars of each group (alike in the scan); both lighter bars: about 8-16 without thrombin, 100 after thrombin 30', not lowered after a further 15' with APC (about 108-111), fallen to about 18-27 after 90' with APC”.

B1: rBDD FVIII (recombinant B-domain deleted FVIII) (other)
chain: T1 sequence
notes: The commercial product is largely processed into heavy and light chains; also called XYNTHA
Take B1: in data set [5], the koff came out at 0.00114 s⁻¹ and the kon stood at 1.37e+06 M⁻¹ s⁻¹. Also, binding in data set [6] was put at a Kd of 0.846 nM.

By EC50 is commonly meant the concentration giving half of the maximal effect. Lower therefore signals an effect from little substance. In general, koff refers to the first-order rate constant of dissociation. Lower therefore signals a long-lived complex. Broadly, the kon is the rate constant with which the complex forms. A lower kon goes with slower complex formation. As usually defined, the Kd is the constant that tells how readily two partners part at equilibrium. Low values mean tighter binding, high ones weaker binding.
